These results are taken from patent US20040097712A1 (Amgen, published 2004).

Assay [1] deals with T1, rat sIL-1R1 (1+2+3 domain) (rat, UniProt Q02955 20-338).
T1 construct: extracellular domain
T1 sequence (looked up): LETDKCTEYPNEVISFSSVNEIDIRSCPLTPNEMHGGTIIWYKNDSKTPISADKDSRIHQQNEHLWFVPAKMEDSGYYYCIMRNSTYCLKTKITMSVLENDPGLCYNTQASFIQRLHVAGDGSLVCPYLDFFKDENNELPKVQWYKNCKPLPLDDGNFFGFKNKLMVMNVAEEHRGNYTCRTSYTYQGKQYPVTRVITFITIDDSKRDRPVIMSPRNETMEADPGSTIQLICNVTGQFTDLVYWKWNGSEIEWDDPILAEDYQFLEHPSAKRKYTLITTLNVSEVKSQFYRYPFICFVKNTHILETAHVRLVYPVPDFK
Briefly: ELISA, plates coated with the protein, anti-human Fc-HRP detection. The text has this:
(§1) The antibodies were subjected to a preliminary epitope sorting experiment. ELISA plates were coated with human sIL-1R1 (1+2+3 domain), truncated human sIL-1R1 (1+2 domain), rat sIL-1R1, human sIL-1R type II, and ovalbumin (negative control). Antibody binding was detected with a horseradish peroxidase-conjugated anti-Human Fc antibody (Pierce Chemical Co., Rockford, Ill.). A check mark (√) in Table 2 represents a positive result for binding; “X” represents a negative result.
A general note: In an ELISA, binding on a coated surface is turned into a signal by an enzyme label.

Assay [2] addresses T2, human sIL-1R type II (1+2+3 domain) (human, UniProt P27930 14-343).
T2 construct: extracellular domain; also called Hu sIL-1RII; human type II receptor
T2 sequence (looked up): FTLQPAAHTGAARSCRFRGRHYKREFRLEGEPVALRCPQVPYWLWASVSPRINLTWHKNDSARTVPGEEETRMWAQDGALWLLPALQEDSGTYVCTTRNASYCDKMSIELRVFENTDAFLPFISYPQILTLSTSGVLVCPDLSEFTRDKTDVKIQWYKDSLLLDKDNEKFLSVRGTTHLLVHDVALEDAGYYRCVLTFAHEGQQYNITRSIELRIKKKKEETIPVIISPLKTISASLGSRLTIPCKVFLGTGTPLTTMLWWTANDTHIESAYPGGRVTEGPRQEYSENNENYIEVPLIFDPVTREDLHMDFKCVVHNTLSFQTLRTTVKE
The description is as above.
Text: as §1

Assay [3] concerns the target T3, ovalbumin (negative control) (UniProt P01012 2-386).
T3 construct: also called OA
T3 sequence (looked up): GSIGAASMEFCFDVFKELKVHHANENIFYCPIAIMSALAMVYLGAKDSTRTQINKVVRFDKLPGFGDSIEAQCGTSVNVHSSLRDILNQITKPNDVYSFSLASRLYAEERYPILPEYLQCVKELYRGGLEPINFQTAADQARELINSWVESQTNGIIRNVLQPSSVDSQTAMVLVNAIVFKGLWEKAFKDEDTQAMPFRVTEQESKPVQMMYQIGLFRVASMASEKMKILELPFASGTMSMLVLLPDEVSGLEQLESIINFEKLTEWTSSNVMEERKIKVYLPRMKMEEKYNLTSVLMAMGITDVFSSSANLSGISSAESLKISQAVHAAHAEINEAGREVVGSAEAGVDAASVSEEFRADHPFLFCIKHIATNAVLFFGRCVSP
Described as above.
Text: as §1

Assay [4] addresses T4, IL-1R1 on human cells (primary human chondrocytes; human whole blood) (human, UniProt P14778 18-569).
T4 sequence (looked up): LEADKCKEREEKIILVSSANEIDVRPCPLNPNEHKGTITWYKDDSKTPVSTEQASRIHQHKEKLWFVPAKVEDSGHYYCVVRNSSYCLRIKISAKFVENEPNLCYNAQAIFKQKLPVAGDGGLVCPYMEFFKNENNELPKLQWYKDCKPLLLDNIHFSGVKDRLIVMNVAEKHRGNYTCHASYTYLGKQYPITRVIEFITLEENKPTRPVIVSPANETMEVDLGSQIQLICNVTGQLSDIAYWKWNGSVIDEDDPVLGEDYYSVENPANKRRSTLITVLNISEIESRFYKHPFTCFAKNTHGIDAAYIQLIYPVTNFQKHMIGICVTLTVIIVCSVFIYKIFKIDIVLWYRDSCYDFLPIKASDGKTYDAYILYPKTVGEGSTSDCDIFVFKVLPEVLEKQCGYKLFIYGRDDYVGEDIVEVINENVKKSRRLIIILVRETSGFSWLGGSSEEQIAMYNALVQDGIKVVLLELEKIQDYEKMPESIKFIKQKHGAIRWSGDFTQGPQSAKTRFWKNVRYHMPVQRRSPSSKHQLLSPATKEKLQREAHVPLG
Nature of the assay: cell-based or functional assay.

The target in assay [5] is T4, IL-1R1 on human cells (primary human …). Briefly: cell-based or functional assay. The source holds these as a separate data set.
For assay [6] the target is unchanged. Briefly: cell-based or functional assay. The source holds these as a separate data set.

B1: 15C4 human anti-IL-1R1 monoclonal antibody (purified from hybridoma supernatant) (antibody, V domains shown)
VH: EVQLMQSGAEVKKPGESLKISCKGSGYSFSFHWIAWVRQMPGKGLEWMGIIHPGASDTRYSPSFQGQVTISADNSNSATYLQWSSLKASDTAMYFCARQRELDYFDYWGQGTLVTVSS
VL: EIVLTQSPDFQSVTPKEKVTITCRASQSIGSSLHWYQQKPDQSPKLLIKYASQSFSGVPSRFSGSGSGTDFTLTINSLEAEDAAAYYCHQSSSLPLTFGGGTKVEIK
notes: Human IgG kappa from HuMab mice
Turning to B1, in assay [1], the binding result is “no binding”. Also, the binding result in assay [2] is “no binding”. In addition, the binding result in assay [3] is on record as “no binding”. Also, the “IC50, inhibition of IL-1β induced IL-6 production in primary human chondrocytes (Table 4A)” value in assay [4] is 0.016 nM. For the same molecule, in assay [5], the “IC50, inhibition of IL-1-induced IL-6 production in human whole blood, composite (pooled data)” value worked out at 0.126 nM; the “IC50, inhibition of IL-1-induced IL-6 production in human whole blood, donor 1047” value was found to be 0.126 nM; the “IC50, inhibition of IL-1-induced IL-6 production in human whole blood, donor 1319” value turned out to be 0.111 nM. Besides, in assay [6], the “IC50, inhibition of IL-1β induced IL-6 production in primary human chondrocytes (Table 4B)” value is 0.007 nM.
